We go through 16 sequences from the DeepSol protein solubility set.

This series can be described thus: soluble on expression in E. coli; label from the status in PepcDB or PDB records.
Consider “MGSDKIHHHHHHMNDPAHPPIPPVSKRDAPAFSDLQHRATSASAFTQGSTTYHDVRPGYPAEAVELARGFGRVLDVGAGTGKLTSELTADQVLALDPSMDMLRVFRSALPAVPCWQATAEHTGIRDNAVDLITCAQTWHWVDVTAASAEFDRVIAPEGAVLLVWNNLDTSIAWVHRLSRIMHAGDVLKPGFTPETAAPWIIDREIRTTWNQHLTPEEIIQLAHTRSYWLNASEKIKERVDQNLQWYLYEHLGFSPDNPVELPYRCDAFLLSRSGTLAGRSSNL”, for which the “soluble on expression in E. coli” value was “not soluble”.
In the case of “MKVNDRVTVKTDGGPRRPGVVLAVEEFSEGTMYLVSLEDYPLGIWFFNEAGHQDGIFVEKAE”, the “soluble on expression in E. coli” value is on record as “soluble”.
Turning to “LREQVQDLFNKKYGEALGIKYPVQVPYKRIKSNPGSVIIEGLPPGIPFRKPCTFGSQNLERILAVADKIKFTVTRPFQGLIPKPDE”, the “soluble on expression in E. coli” value was “soluble”.
Take “MAHHHHHHMPQVDLVKLLQICVNGALAAQQYILLDLIQLRSLEVSRRDVCIADLDQQEIARLRARLKAAVSVDVKGKLEYKEGGSVDDLVTTADVVTQGLMERLLAEAFPDTPFTIIGEEEATTTDAIKIQVERCVEAFRDVNAVAPLQKELEAHASSDSRHVSASTVEELRARVGVFIDPIDATSCFVDGTWGAPMTLVGITVDGVPVAGVSNRFFYSTVDDLTSGGNAGCTGLSYVWNDPSAGPFIVHEGRLATPLWSLGRKTTSNLAMLRVIRSGTTSNKRFEQLLARLQPVEPRSARGAGNKLMLLVVSMLAASDGAAAAACDVFLAPPNSISKWDTCAAHAFLLALGGDMRTLRGELIRYPLRGTTNLKTLPDGVVGLTRWSMTEGLRRLGWQ”: the “soluble on expression in E. coli” value is “not soluble”.
For “MGSDKIHHHHHHMNLTHRQLTMFRAIMLHGNLGRAADACASSQPTLSRELGRLEQLLGFNLFDRVRGRLRPTVRALALMQEVERSFIGLEQIAARASELRTQATGRLRIACLPALAHALVPRALVYLSHTHPELGVSVHPLESPWLEQAMSEQRFDLGLSETQKAPAGVTLQPLLKVNEVAVLPRDHSLCRKARLQPRDFTGERFISLAVGDPYRTAIDAMFEDAKVHRVTLLETTSSVAVCAMVRQGLGVAIVNPFTAMELSGPDLVVRSLTVAIGYQVNMLLPEIAAPHPLQSVLADTVRKASADLSHLDQCFY”, the “soluble on expression in E. coli” value is recorded as “not soluble”.
Then “AEQDMYLLRQSFGKHKTVSAGVPWFSTLFGRDSLITASQTLMLNSQIAKETLILLAKYQGKIDDEWREEEPGKILHELRLGEMARCQEIPHTPYYGTVDATPLWLMLYAEHYAWTHDQELLELLWPNALAAMDWIDRNTKQTSYLSYFRKSKRGLANQGWKDSGDCIVNHKGELANGPIALCEVQAYVYAAKTRLAEIARMKKRLDLADRWLEEARSLKVRFNRDFWVEDQDFCALALDGDGKPVDSITSNPGHCLHLGLFTHERAYSVAERLRAPDMFNGWGIRTLSSLSPAYNPMGYHIGSVWPHDNALIAMGLRSLGLIDQALELFQGLFDMTSQQPYERPPELFCGYERNGDNAPVQYPVACTPQAWATGSIFQ”, with “not soluble”; and “QSWYGGFKDTAELVRGDSNECIELTDDQLSYLAVLWAARCAVGFQEMKLTRLAKETRLSHEVVQKITQIFISQGIVSVFEEYGPSGQKDVAWVQLTEHGCGLAKNLERVSSHS”, with “not soluble”; and “MKTLLTSATLLVTTLSTPLMAKEADIQSLVNAAQKEGQVYSVGMPGSWANWKDTWNDLNKLYGLKHQDTDMSSAQEIAKFAAEKNNATADIGDIGFAFARVAVKKGVTQAYKPTTWDSIPDWAKDKDGHWALAYTGTISFISNNKLVKNPPTSWDDLLEGNYKVSVGDVGVAAQANNAVLAAAFAKGGDESNLKPAIKFFAELAKQGRLSYTDPGLANLEKGEVEVALLWDFNALNYRDKLGRDRFSVNIPQDGSVISGYTTIINKFAKNPNSAKLAREYIFSDQGQINLAEGYARPIRSDVVLPQSIQDKLIPNDQYTNVQPVSDFKAWEKSARKLPRQWQENVLINQQ”, with “not soluble”.
With “MNTNDAKEYLARREIPQLFESLLNGLMCSKPEDPVEYLESCLQKVKELGGCDKVKWDTFVSQEKKTLPPLNGGQSRRSFLRNVMPENSNFPYRRYDRLPPIHQFSIESDTDLSETAELIEEYEVFDPTRPRPKIILVIGGPGSGKGTQSLKIAERYGFQYISVGELLRKKIHSTSSNRKWSLIAKIITTGELAPQETTITEIKQKLMQIPDEEGIVIDGFPRDVAQALSFEDQICTPDLVVFLACANQRLKERLL”, the “soluble on expression in E. coli” value was “soluble”.
As for “PYSSGVDENYYQDLRNRFNHGELYSADSIPSLGGKIFKTAGGREVYGGGGIIPDIFIPLDTAGLNSYMMKVEDSDLIPRYAFLYSDANRVSLSRFKTVEELGAYLDRTYLIFDFASFAQRYGIPMRTSLINEARNRIKKYINAYIAMNFFDLQGYYQLLLHDDPFILQAISLIKEGKTFPLIYDQKGTQSTDPAA”, the “soluble on expression in E. coli” value is on record as “not soluble”.
With “MSSRNNPARVAIVMGSKSDWATMQFAAEIFEILDVPHHVEVVSAHRTPDKLFSFAETAEENGYQVIIAGAGGAAHLPGMIAAKTLVPVLGVPVQSAALSGVDSLYSIVQMPRGIPVGTLAIGKAGAANAALLAAQILAQHDAELHQRIADWRKAQTDEVLENPDPRGTL” the entry was “not soluble”.
As to “MGHHHHHHSHMANSMANSMGITTLDDPLGHMPERFDAFICYCPSDIQFVQEMIRQLEQTNYRLKLCVSDRDVLPGTCVWSIASELIEKRCRRMVVVVSDDYLQSKECDFQTKFALSLSPGAHQKRLIPIKYKAMKKEFPSILRFITVCDYTNPCTKSWFWTRLAKALSLP”, the “soluble on expression in E. coli” value is on record as “soluble”.
With “MHLYDKRPGGGASFSQILGQAKNRQGIFFNTTFAVMGHVAKASGRVTETDIRIATLLMDQMRLTGDARKEAQQAFREGKEPDFDLCSSLQAFRAVTQGRQELVQMFIEIQIQTALSDGELDAAEHAILMTVAQELGYGRLEHHHHHH”, the “soluble on expression in E. coli” value was “not soluble”.
Consider “MSLAEGYQSEADLERELIDDLRRQGYEFLPAIKTPEAMLANVRVQLQALNDVQFSDGEWARFVETWLDKPSDGIVEKTRKIHDDYIHDFVFDDGRIQNIHLVDKKTLVRNKVQVIRQFVTTPALCATPPREGNFSGGEQLWDQFPSFGGVPVGRGGYNRYDVTILVNGLPLVQVELKRRGVAIREAFNQVHRYSKESFNSAHSLFKYLQLFVISNGTDTRYFANTTRRDKNSFDFTMHWAKADNTPIRDLKDFAATFFQKHTLLSVLLHYSVFDVSNTLLVMRPYQIAATERILWKIKSSHQAKTWSTPEGGGYIWHTTGSGKTLTSFKAARLGTELDFIDKVFFVVDRKDLDYQTMKEYQRFSPDSVNGSDSTAGLKRNLEKDDNRIIVTTIQKLNNLMKSEPDLPIYHKQVVFIFDECHRSQFGEAQKNLRKKFKRYLQFGFTGTPIFPENALGAETTASVFGRELHSYVITDAIRDEKVLKFKVDYNDVRPRFKAIETERDEKKLSAAENRQALLHPERIREITQYILTHYRQKTHRLQPGAKGFNALFAVSSVEAAKLYYEAFKTQQKDSAKPLKVATIFSYAANEAQDAVGDIADEGFEVSALNSSAKEFLNAAIADYNALFKTNFSVDSQGFQNYYRDLAKRVKGTDDSGKRLPADEQVDLLIVVGMFLTGFDAPTLNTLFVDKNLRYHGLLQAYSRTNRIFDATKTFGNIVTFRDLEQATIDAITLFGDKNTRNVVLEKSYREYMEGYTDALTGQARRGFVEVVQELQARFPDPAALEKEADKKAFVRLFGEYLRAENVLQNFDEFAALKALQSVNTGDPAAVEAFKAQHYLSDEDLAALQAIKLPPERTMQDYRSTYNDIRDWLRREQAGVEKEKSTIDWDDVVFEVDLLKSQEINLDYILELIFERNKETRSKAELVEEVRRVIRASLGHRAKESLVVDFINQTDLEQLAEGHHHHHH”, for which the “soluble on expression in E. coli” value was “soluble”.
Regarding “MAHHHHHHMHLQIVCLTDEVREMYKHHKTHHEGDSGLDLFIIKDEILKPKSTTFVKLGIKAIALQYKSSYYHKSEANANANANANGKDAPVGMGGVNAKESCAPHQKNPEIVNTSYLLFPRSSISKTPLRLANSIGLIDAGYRGELIAALDNTSEEEYLIKKNDKLVQLVSFTGEPLSFELVDELDETSRGEGGFGSTSNK”, the “soluble on expression in E. coli” value is recorded as “soluble”.
In the case of “DTLANAVYLRLMTPLGGWWADPTLGSRLHELSRSKDSNRIDLLACQYAEQALQPLLQDGRASRVQVSSQRQGPGRLLLNIEVAETGGHIRHFQHQVRI”, the “soluble on expression in E. coli” value was “not soluble”.
